Experimental data from US20150252427A1 (UNIVERSITY OF CONNECTICUT, published 2015).
Read-outs that look alike come from different tables or passages of the source.

Experiments:
[1] = biological target: T1, H-2 K^d molecules purified by affinity chromatography (human, UniProt P61769 21-119; P01902 22-305); test: radiolabeled peptide inhibition assay, purified H-2 K^d
T1 construct: MHC class I molecule, 1-10 nM in the assay, with added human beta-2 microglobulin; also called purified MHC molecules
Description: (§1) Binding assays. […] Under the conditions utilized, where [label]<[MHC] and IC₅₀≧[MHC], the measured IC50 values are reasonable approximations of the KD values.

[2] = biological target: T1, H-2 K^d molecules purified by affinity …; test: as above; remark: listed apart in the source
Description: as §1

Binder | IC50 [1] | IC50 [2]
PDKRLKAEPA [Prrc2a WT peptide] | 261 nM | –
GFHGCIHEVL (CMS5) [Slit3 Mut peptide] | 51600 nM | –
PDLTQYAII (WT of P(y/D)LTQYAII) [Dhx8.3 WT peptide] | 1420 nM | –
HYLSAILRL (WT of HYLS(s/A)ILRL) [Pacs2 WT peptide] | – | 1270 nM
HYLSSILRL (Mut of HYLS(s/A)ILRL; Meth A) [Pacs2 Mut peptide] | – | 41 nM
KLQRQYRSPRR [Mast2 WT peptide] | 8510 nM | –
PDLTQYAIIM [Dhx8.4 WT peptide] | 6260 nM | –
LDYERIHKKML [Ugdh WT peptide] | 12 nM | –
NYLLSLVAVVL [Serinc1 WT peptide] | – | 20900 nM
NYLLSLVAVML (CMS5) [Serinc1 Mut peptide] | – | 2680 nM
LYVSKLNGP (Mut of L(y/D)VSKLNGP; Meth A) [Galnt1 Mut peptide] | 27100 nM | –
PALKSEEKTL (CMS5) [Stau1.3 Mut peptide] | 69500 nM | –
AYCETCWEW [Apc WT peptide] | – | 60 nM
AYCETCWEL (Meth A) [Apc Mut peptide] | – | 23 nM
CYAKLKEQL (WT of CYAK(v/L)KEQL) [Ssx2ip WT peptide] | – | 3.2 nM
CYAKVKEQL (Mut of CYAK(v/L)KEQL; CMS5) [Ssx2ip Mut peptide] | – | 26 nM
AYAKQFAA (Mut of A(y/D)AKQFAA; Meth A) [Ube4a.2 Mut peptide] | 28600 nM | –
DYVPMEQP (Mut of D(y/D)VPMEQP; CMS5) [Alkbh6.1 Mut peptide] | 60900 nM | –
AYILAALTKLQ (Meth A) [Trim26.2 Mut peptide] | 17600 nM | –
HYINMSLPI (WT of HYINM(i/S)LPI) [Ufsp2 WT peptide] | – | < 0.1 nM
HYINMILPI (Mut of HYINM(i/S)LPI; Meth A) [Ufsp2 Mut peptide] | – | 0.23 nM
GDSVLHLAI (WT of G(y/D)SVLHLAI) [Nfkb1 WT peptide] | 1620 nM | –
YYVPLLKRVPS [Alms1.2 WT peptide] | – | 1480 nM
YYVPLLKRVPL (Meth A) [Alms1.2 Mut peptide] | – | 421 nM
PDLTQYAIIML [Dhx8.1 WT peptide] | 1650 nM | –
ADILAALTKL [Trim26.1 WT peptide] | 1.1 nM | –
TYIRPFETKV (Mut of TYIRP(f/L)ETKV; Meth A) [Ccdc85c Mut peptide] | – | 6160 nM
DYVPMEQPRPP (CMS5) [Alkbh6.4 Mut peptide] | 47100 nM | –

Now from value to binder:

IC50 [1] | IC50 [2] | Binder
1640 nM | – | EYLDLQTQ (Mut of E(y/D)LDLQTQ; Meth A) [Zfp236.1 Mut peptide]
82 nM | – | SYMLQALCI (Mut of (sy/LD)MLQALCI; Meth A; also called mutant Tnpo3 peptide; sy-MLQALCI) [Tnpo3 Mut peptide]
1450 nM | – | PYKRLKAEPA (Meth A) [Prrc2a Mut peptide]
244 nM | – | PYLTQYAII (Mut of P(y/D)LTQYAII; CMS5) [Dhx8.3 Mut peptide]
10100 nM | – | KLQRQYRSPRL (CMS5) [Mast2 Mut peptide]
6570 nM | – | PYLTQYAIIM (CMS5) [Dhx8.4 Mut peptide]
600 nM | – | LYYERIHKKML (Meth A) [Ugdh Mut peptide]
2470 nM | – | HYLQGSNA (Mut of H(y/D)LQGSNA; Meth A) [Fiz1 Mut peptide]
17 nM | – | SDRLPSSRKK [M112 WT peptide]
4540 nM | – | ELQGLLEDER [Ccdc136 WT peptide]
7050 nM | – | QVFPGLMER [Atxn10.1 WT peptide]
1150 nM | – | VYLTCRLEKPA (Meth A) [Gapdh Mut peptide]
12 nM | – | AYAKQFAAI (Mut of A(y/D)AKQFAAI; Meth A) [Ube4a.1 Mut peptide]
264 nM | – | LYHTRPTAL (Mut of L(y/D)HTRPTAL; Meth A) [Kdm4b Mut peptide]
58 nM | – | KYMSMLEER (Mut of K(y/D)MSMLEER; Meth A) [Ckap5 Mut peptide (Table 5, 9-mer)]
143 nM | – | IYGVVARNRAL (Mut of I(y/D)GVVARNRAL; Meth A) [Dis312.1 Mut peptide]
0.26 nM | – | GYSVLHLAI (Mut of G(y/D)SVLHLAI; Meth A) [Nfkb1 Mut peptide]
2190 nM | – | PYLTQYAIIML (CMS5) [Dhx8.1 Mut peptide]
622 nM | – | AYILAALTKL (Meth A) [Trim26.1 Mut peptide]
146 nM | – | LDMLQALCI (WT of (sy/LD)MLQALCI) [Tnpo3 WT peptide]
1410 nM | – | LYDVDAAF (Mut of L(y/D)DVDAAF; Meth A) [Cpsf2 Mut peptide]
5110 nM | – | SEDKIKAIP [Rangap1 WT peptide]
